Experiments:
[1] = biological target: T1, hSIRPαV2D1 with histidine tag (human); assay: SPR (Biacore 3000), IgG captured, single analyte concentration 50 nM
T1 construct: analyte of the Biacore experiments; also called first immunoglobulin-like domain of human SIRPα variant V2; not shown: histidine tag
Method: (§1) Briefly, biosensor analysis was conducted at 25° C. in an HPS-EP buffer (10 mM HEPES, 150 mM NaCl, 3 mM EDTA, 0.005% polysorbate 20, 0.1% bovine serum albumin, pH 7.4) using a Biacore 3000 optical biosensor equipped with a CM5 sensor chip according to the manufacturer's protocol. The auto sampler was maintained at ambient temperature. Goat anti-human IgG capture antibody (Jackson Laboratories; 109-005-098) was immobilized on the four flow cells in each sensor chip using standard amine coupling chemistry. About 8000 resonance units (RU) of this antibody was immobilized on each flow cell. Flow cells 2, 3, and 4 were used to analyze captured anti-SIRPα antibodies (about 250 to 300 RU were captured on each of flow cells 2, 3, and 4), while flow cell 1 was used as the reference flow cell. The analytes tested were hSIRPαV1D1, hSIRPαV2D1, cynomolgus monkey SIRPαV1D1 (cSIRPαV1D1), cSIRPαV2D1, hSIRPβ1D1, and hSIRPγD1, each of which also included a histidine tag. The sequences of cSIRPαV1D1 and cSIRPαV2D2 are provided in SEQ ID NOs: 143 and 142, respectively. To avoid confusion, the differences between the amino acid sequences of cSIRPαV1D1 and cSIRPαV2D1 are not the same as the differences between the amino acid sequences of hSIRPαV1D1 and hSIRPαV2D1. […]
(§2) In a separate experiment, KDs of additional variants of Ab11_G4 and Ab24_G4 were determined for binding to hSIRPαV1D1 and hSIRPαV2D1. […]

[2] = biological target: T2, hSIRPαV1D1 with histidine tag (human, UniProt P78324 31-147); assay: as above
T2 construct: analyte of the Biacore experiments; also called first immunoglobulin-like domain of human SIRPα variant V1; not shown: histidine tag
T2 sequence (P78324 31-147 limits assumed): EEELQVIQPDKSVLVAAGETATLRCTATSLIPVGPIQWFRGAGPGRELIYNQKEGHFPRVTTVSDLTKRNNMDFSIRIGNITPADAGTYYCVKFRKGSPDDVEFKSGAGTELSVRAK
Method: as §1, §2

T1 sequence (chain, as listed by the source limits assumed): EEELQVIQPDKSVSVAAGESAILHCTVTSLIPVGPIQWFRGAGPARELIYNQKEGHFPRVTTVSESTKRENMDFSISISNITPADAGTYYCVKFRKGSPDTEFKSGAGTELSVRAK

B1: Ab24_G1AAA (antibody, human IgG1, kappa, L234A L235A)
heavy: EVQLVESGGGLVKPGGSLRLSCAASGFTFSSYVMSWVRQTPGKGLEWVATISSGGTYTYYPDSVKGRFTLSRDNAKNSLYLQMNSLRAEDTAVYYCASQLTGSEFDYWGQGTTVTVSSASTKGPSVFPLAPSSKSTSGGTAALGCLVKDYFPEPVTVSWNSGALTSGVHTFPAVLQSSGLYSLSSVVTVPSSSLGTQTYICNVNHKPSNTKVDKKVEPKSCDKTHTCPPCPAPEAAGGPSVFLFPPKPKDTLMISRTPEVTCVVVDVSHEDPEVKFNWYVDGVEVHNAKTKPREEQYNSTYRVVSVLTVLHQDWLNGKEYKCKVSNKALAAPIEKTISKAKGQPREPQVYTLPPSREEMTKNQVSLTCLVKGFYPSDIAVEWESNGQPENNYKTTPPVLDSDGSFFLYSKLTVDKSRWQQGNVFSCSVMHEALHNHYTQKSLSLSPGK
light: DIVLTQSPASLAVSLGERATISCRASESVDLYGTSFMHWYQQKPGQPPKLLIYRASNLESGVPDRFSGSGSRTDFTLTINPLQAEDVATYYCHQSSDELPWTFGGGTKVEIKRTVAAPSVFIFPPSDEQLKSGTASVVCLLNNFYPREAKVQWKVDNALQSGNSQESVTEQDSKDSTYSLSSTLTLSKADYEKHKVYACEVTHQGLSSPVTKSFNRGEC
notes: also called Ab24_AAA; 24_AAA
Kd [1]: 1.19 nM
Kd [2]: 19.4 nM
